Test [1] concerns chromatin strands from invasive HT1080 fibrosarcoma cells. Put plainly: proteinase K treatment of isolated chromatin strands. In kind it is biochemical, human. The note with it: proteinase K 5 mg/ml, 5 minutes. As for the experimental part:
(§1) FIGS. 2D and 2E illustrate the effects of treatment of chromatin strands from normal human microvascular endothelial cells and invasive HT1080 fibrosarcoma cells with proteinase K under the conditions described above except that proteinase K (5 mg/ml) was substituted for ALU and the incubation time was reduced from 60 minutes to 5 minutes.

Test [2] deals with chromatin strands from normal human microvascular endothelial cells. The test is described as above. It is filed as biochemical. The note with it: normal endothelial cell chromatin; proteinase K 5 mg/ml, 5 minutes. As for the experimental part: as §1
The test system of the next test is chromatin strands. Put plainly: degradation of chromatin strands with other endonucleases. In kind it is biochemical. The note with it: isolated chromatin strands.

The text below walks through data of patent publication US20050079516A1, “Chromosome stability assay” (The Board of Trustees of the University of Illinois, priority 2003, published 2005).

B1: proteinase K: protease proteinase K, chromatin modifying agent (protein, UniProt P06873 106-384, looked up)
Proteinase K: AAQTNAPWGLARISSTSPGTSTYYYDESAGQGSCVYVIDTGIEASHPEFEGRAQMVKTYYYSSRDGNGHGTHCAGTVGSRTYGVAKKTQLFGVKVLDDNGSGQYSTIIAGMDFVASDKNNRNCPKGVVASLSLGGGYSSSVNSAAARLQSSGVMVAVAAGNNNADARNYSPASEPSVCTVGASDRYDRRSSFSNYGSVLDIFGPGTSILSTWIGGSTRSISGTSMATPHVAGLAAYLMTLGKTTAASACRYIADTANKGDLSNIPFGTVNLLAYNNYQA
For B1, the “chromatin dispersion (FIGS. 2D, 2E)” value in test [1] is on record as “extensively dispersed”; in test [2] it was “remained largely intact”.

B2: RNase A: nuclease (protein, UniProt P61823 27-150, looked up)
Ribonuclease pancreatic: KETAAAKFERQHMDSSTSAASSSNYCNQMMKSRNLTKDRCKPVNTFVHESLADVQAVCSQKNVACKNGQTNCYQSYSTMSITDCRETGSSKYPNCAYKTTQANKHIIVACEGNPYVPVHFDASV
Turning to B2, the “correlation of chromatin cleavage pattern with invasive potential of the cell” value with chromatin strands is given as “does not exhibit chromatin cleavage patterns that correlate with the invasive potential”.
